Experimental data as given in patent US20060223757, “Zinc finger binding domains for GNN” (published 2006).

Assays:
[1] = biological target: T1, E2C (six-finger Sp1C framework protein) (synthetic construct); experiment: EMSA; ±30%; 3 mismatches to E2C target
[2] = biological target: T2, E3 (six-finger Sp1C framework protein) (synthetic construct); experiment: EMSA; ±10%; ZBA buffer with ZnCl2, room temperature
[3] = biological target: T1, E2C (six-finger Sp1C framework protein); experiment: EMSA; ±15%; ZBA buffer with ZnCl2, room temperature
[4] = biological target: T2, E3 (six-finger Sp1C framework protein); experiment: EMSA; ±15%; about 30-fold lower affinity than E3 target

T1 sequence (chain, as listed by the source): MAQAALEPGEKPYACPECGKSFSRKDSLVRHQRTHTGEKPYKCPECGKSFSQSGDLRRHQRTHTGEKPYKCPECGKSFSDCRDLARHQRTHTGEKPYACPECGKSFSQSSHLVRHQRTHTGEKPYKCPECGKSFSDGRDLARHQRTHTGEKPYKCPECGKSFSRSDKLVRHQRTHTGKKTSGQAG
T2 sequence (chain, as listed by the source): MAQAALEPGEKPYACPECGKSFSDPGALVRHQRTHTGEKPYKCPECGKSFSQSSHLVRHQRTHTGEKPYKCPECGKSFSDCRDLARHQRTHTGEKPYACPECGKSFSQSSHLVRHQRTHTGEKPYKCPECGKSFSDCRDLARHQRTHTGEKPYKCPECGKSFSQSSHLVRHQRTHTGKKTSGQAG

B1: E3 target site (erbB-3 5'-UTR) (dsDNA)
DNA 1: GGAGCCGGAGCCGGAGTC
DNA 2: GACTCCGGCTCCGGCTCC
- Kd [1]: 11 nM
- Kd [2]: 0.35 nM

B2: E2C target site (erbB-2 5'-UTR) (dsDNA)
DNA 1: GGGGCCGGAGCCGCAGTG
DNA 2: CACTGCGGCTCCGGCCCC
- Kd [3]: 0.75 nM
- Kd [4]: 10 nM
